Results as given in US20230227539A1 (HIFIBIO HK, published 2023).

B1: Ab-3 (IgG1) (antibody, V domains shown)
VH: QLQLQESGPGLVKPSETLSLTCTVSGGSISSTIYYWGWIRQPPGKGLEWIGSIYYSGNAYYNPSLKSRVTISVDTSKNQFSLMLNSVTASDTAVYYCATPHTRWGPDYWGQGTLVTVSS
VL: NFMLTQPHSVSASPGKTVTVSCTRSSGSIASNYVLWYQQRPGSAPTTVIYEDDQRPSGVPDRFSASIDSSSNSASLTISGLKTEDEADYYCQSYDGDNLVFGGGTKLTVLG
B2: Ab-1 (IgG1) (antibody, V domains shown)
VH: QLQLQESGPGLVKPSETLSLTCTVSGGSISSSIYYWGWIRQPPGKGLEWIGSIYYSGNAYYNPSLKSRVTISVDTSKNQFSLKLNSVTAADTAVYYCATPHTRWGPDYWGQGTLVTVSS
VL: NFMLTQPHSVSASPGKTVTVSCTRSSGSIASNYVLWYQQRPGSAPTTVIYEDDQRPSGVPDRFSASIDSSSNSASLTISGLKTEDEADYYCQSYDGDNLVFGGGTKLTVLG
B3: Ab-6 (antibody, V domains shown)
VH: QVQLVQSGAEVKKPGASVKVSCKVSGYTLTELSMHWVRQAPGKGLEWMGGFDPEDGETIYAQKFQGRVTMTEDTSTDTAYMELSSLRSEDTAVYYCATGHQLLFYNWFDPWGQGTLVTVSS
VL: QSALTQPPSASGSPGQSVTISCTGTSSDVGGYNYVSWYQQHPGKAPKLMIYEVSKRPSGVPDRFSGSKSGNTASLTVSGLQAEDEADYYCSSYAGSNNLVFGGGTKLTVLG
B4: Ab-7 (antibody, V domains shown)
VH: EVQLVESGGGLVKPGGSLRLSCAASGFAFSSYTMNWVRQAPGKGLAWVSSISSSSDYIFYADSVKGRCTISRDNAKNSLSLQMNSLRAEDTAVYYCARGSNTAWGGVPDAFDFWGLGTVVTVSS
VL: QSALTQPPSASGSPGQSVTISCTGTSSDVGRYNYVSWYQQHPGKAPKLMIYEVSKRPSGVPDRFSGSKSGNTASLTVSGLQTEDEADYYCSSYAGSNNLVFGGGTKLTVLG
B5: Ab-4 (IgG1) (antibody, V domains shown)
VH: QITLKESGPTLVKPTQTLTLTCTFSGFSLSTSGVGVGWIRQPPGKALEWLALIYWDDDKRYSPSLKSRLTITKDTSKNQVVLTMTNMAPVDTATYYCAHRLSNFWSGYYTGWGQGTLVTVSS
VL: not shown
B6: Ab-2 IgG1 (antibody, V domains shown)
VH: EVQLVESGGGLIQPGGSLRLSCAASGFIVSSNYMSWVRQAPGKGLEWVSIIYSGGSTFYADSVKGRFTISRDNSKNTLYLQMNSLRVEDTAVYYCARDLQELGSLDYWGQGTLVTVSS
VL: DIQMTQSPSSVSASVGDRVTITCRASQGISSWLAWYQQKPGKAPKLLIYAASSLQSGVPSRFSGSGSGTDFTLTISSLQPEDFATYYCQEANSFPYTFGQGTKLEIKR
notes: also called 2A2A; C1S5-2A2A
B7: Ab-8 (antibody, V domains shown)
VH: EVQLVESGGGLIQPGGSLRLSCAAPGFIVSSNYMSWVRQAPGKGLEWVSIIYSGGSTFYADSVKGRFTISRDNSKNTLYLQMNSLRVEDTAVYYCARDLQELGSLDYWGQGTLVTVSS
VL: DIQMTQSPSSVSASVGDRVTITCRASQGISSWLAWYQQKPGKAPKLLIYAASSLQSGVPSRFSGSGSGTDFTLTISSLQPEDFATYYCQEANSFPYTFGQGTKLEIKR
B8: Ab-9 (antibody, V domains shown)
VH: EVQLVESGGGLIQPGGSLRLSCAASGFIVSSNYMSWVRQAPGKGLEWVSIIYSGGSTFYADSVKGRFTISRDNSKNTLYLQMNSLRVEDTAVYYCARDLQELGSLDCWGQGTLVTVSS
VL: DIQMTQSPSSVSASVGDRVTITCRASQGISSWLAWYQQKPGKAPKLLIYAASSLQSGVPSRFSGSGSGTDFTLTISSLQPEDFATYYCQEANSFPYTFGQGTKLEIKR

Tests used:
[1] = biological target: T1, SARS-CoV-2 Spike S1+S2 ECD, his Tag protein (SARS-CoV-2, UniProt P0DTC2 14-1213); experiment: ELISA, coated S1+S2 ECD His
T1 construct: extracellular domain

[2] = biological target: T2, SARS-CoV-2 S protein on pseudotyped virus (wild type) (SARS-CoV-2, UniProt P0DTC2 14-1273); experiment: cell-based or functional assay
[3] = biological target: T2, SARS-CoV-2 S protein on pseudotyped …; experiment: cell-based or functional assay; remark: listed apart in the source
[4] = biological target: SARS-CoV-2 Spike S1, mFc tag spike protein (SARS-CoV-2, UniProt P0DTC2 16-685)
[5] = biological target: T1, SARS-CoV-2 Spike S1+S2 ECD, his Tag …; experiment: ELISA (FIG. 6)
[6] = biological target: T3, SARS-CoV-2 S1 protein (S1 fragment of the S protein) (SARS-CoV-2, UniProt P0DTC2 16-685); experiment: SPR negative control; as indicated by the domain ELISA
T3 construct: domain: S1

[7] = biological target: T1, SARS-CoV-2 Spike S1+S2 ECD, his Tag …; experiment: ELISA on His-tagged S1+S2 ECD (FIG. 7)
[8] = biological target: T1, SARS-CoV-2 Spike S1+S2 ECD, his Tag …; experiment: binding to full-length S protein

Binder	EC50 [1] [nM]	EC90 [1] [nM]	Pseudo-virus neutralization IC50 [2] [nM]	Pseudo-virus neutralization IC90 [2] [nM]	Pseudo-virus neutralization (Test 1) IC80 [3] [nM]	Pseudo-virus neutralization (Test 2) IC50 [3] [nM]	Pseudo-virus neutralization (Test 2) IC80 [3] [nM]	IC50 [4] [nM]	binding result [5]	binding result [6]	EC50 [7] [nM]	EC50 [8] [nM]
B1	0.5	9.36	5.8	52.2	23.2	2.61	10.4	10.6				
B2	0.53	6.03	4.07	36.6	16.3	1.62	6.48	11.1				
B3									binds			
B4									binds			
B5	14.2	328	> 300	> 300				> 300		no binding		
B6	0.5	2.56	0.53	4.76	2.11	0.32	1.29	3.78			0.021	0.55
B7									binds			
B8									binds			
